Like-named read-outs stand apart in the source and are kept apart here.
How the values were obtained:
Experiment in all cases: SPR
[1] = target: actin-binding domain (ABD) of α-catenin (human)
[2] = target: M domain of α-catenin (human)
[3] = target: actin-binding domain (ABD) of α-catenin (human); remark: listed apart in the source

- Kd [1]: 466 nM
- Kd [2]: 104 nM
- koff [2]: 0.0013 s⁻¹
- Kd [3]: 486 nM
Substance: β-catenin•epithelial cadherin cytoplasmic domain complex (BE) (from UniProt P35222;P12830)
